Results: the Human Domainome abundance scans (Beltran et al. 2025)
± gives the uncertainty stated by the source.

B1: Pyruvate dehydrogenase protein X component, mitochondrial, residues 181 to 227; numbered along this chain, O00330 (parent)
chain: RFRLSPAARNILEKHSLDASQGTATGPRGIFTKEDALKLVQLKQTGK

Variants of: B1
Assay: abundance fitness (aPCA) (normalised: wild type 0, dead -1); higher = more abundant; growth selection in yeast, the domain comes from the species named
Details: Homo sapiens

Variant	abundance fitness
MFRLSPAARNILEKHSLDASQGTATGPRGIFTKEDALKLVQLKQTGK [R1M]	-0.489 ± 0.17
NFRLSPAARNILEKHSLDASQGTATGPRGIFTKEDALKLVQLKQTGK [R1N]	-0.353 ± 0.29
PFRLSPAARNILEKHSLDASQGTATGPRGIFTKEDALKLVQLKQTGK [R1P]	-1.1 ± 0.25
QFRLSPAARNILEKHSLDASQGTATGPRGIFTKEDALKLVQLKQTGK [R1Q]	-0.362 ± 0.32
SFRLSPAARNILEKHSLDASQGTATGPRGIFTKEDALKLVQLKQTGK [R1S]	0.145 ± 0.095
TFRLSPAARNILEKHSLDASQGTATGPRGIFTKEDALKLVQLKQTGK [R1T]	-1.29 ± 0.45
VFRLSPAARNILEKHSLDASQGTATGPRGIFTKEDALKLVQLKQTGK [R1V]	-0.685 ± 0.054
WFRLSPAARNILEKHSLDASQGTATGPRGIFTKEDALKLVQLKQTGK [R1W]	-0.651 ± 0.16
RARLSPAARNILEKHSLDASQGTATGPRGIFTKEDALKLVQLKQTGK [F2A]	-0.536 ± 0.063
RCRLSPAARNILEKHSLDASQGTATGPRGIFTKEDALKLVQLKQTGK [F2C]	-0.605 ± 0.075
RDRLSPAARNILEKHSLDASQGTATGPRGIFTKEDALKLVQLKQTGK [F2D]	-0.267 ± 0.088
RERLSPAARNILEKHSLDASQGTATGPRGIFTKEDALKLVQLKQTGK [F2E]	-0.316 ± 0.059
RGRLSPAARNILEKHSLDASQGTATGPRGIFTKEDALKLVQLKQTGK [F2G]	-0.535 ± 0.04
RHRLSPAARNILEKHSLDASQGTATGPRGIFTKEDALKLVQLKQTGK [F2H]	-0.878 ± 0.16
RIRLSPAARNILEKHSLDASQGTATGPRGIFTKEDALKLVQLKQTGK [F2I]	-0.059 ± 0.1
RKRLSPAARNILEKHSLDASQGTATGPRGIFTKEDALKLVQLKQTGK [F2K]	-0.232 ± 0.073
RLRLSPAARNILEKHSLDASQGTATGPRGIFTKEDALKLVQLKQTGK [F2L]	-0.46 ± 0.046
RMRLSPAARNILEKHSLDASQGTATGPRGIFTKEDALKLVQLKQTGK [F2M]	0.137 ± 0.081
RNRLSPAARNILEKHSLDASQGTATGPRGIFTKEDALKLVQLKQTGK [F2N]	0.091 ± 0.073
RPRLSPAARNILEKHSLDASQGTATGPRGIFTKEDALKLVQLKQTGK [F2P]	-1.1 ± 0.14
RQRLSPAARNILEKHSLDASQGTATGPRGIFTKEDALKLVQLKQTGK [F2Q]	-0.679 ± 0.13
RRRLSPAARNILEKHSLDASQGTATGPRGIFTKEDALKLVQLKQTGK [F2R]	-0.65 ± 0.041
RSRLSPAARNILEKHSLDASQGTATGPRGIFTKEDALKLVQLKQTGK [F2S]	-0.239 ± 0.046
RTRLSPAARNILEKHSLDASQGTATGPRGIFTKEDALKLVQLKQTGK [F2T]	-0.323 ± 0.079
RVRLSPAARNILEKHSLDASQGTATGPRGIFTKEDALKLVQLKQTGK [F2V]	-0.486 ± 0.056

Variant	abundance fitness
RWRLSPAARNILEKHSLDASQGTATGPRGIFTKEDALKLVQLKQTGK [F2W]	-1.25 ± 0.11
RYRLSPAARNILEKHSLDASQGTATGPRGIFTKEDALKLVQLKQTGK [F2Y]	-0.015 ± 0.083
RFALSPAARNILEKHSLDASQGTATGPRGIFTKEDALKLVQLKQTGK [R3A]	-0.504 ± 0.061
RFCLSPAARNILEKHSLDASQGTATGPRGIFTKEDALKLVQLKQTGK [R3C]	-0.064 ± 0.069
RFDLSPAARNILEKHSLDASQGTATGPRGIFTKEDALKLVQLKQTGK [R3D]	-0.594 ± 0.13
RFELSPAARNILEKHSLDASQGTATGPRGIFTKEDALKLVQLKQTGK [R3E]	-0.57 ± 0.069
RFFLSPAARNILEKHSLDASQGTATGPRGIFTKEDALKLVQLKQTGK [R3F]	0.144 ± 0.06
RFGLSPAARNILEKHSLDASQGTATGPRGIFTKEDALKLVQLKQTGK [R3G]	-0.336 ± 0.047
RFHLSPAARNILEKHSLDASQGTATGPRGIFTKEDALKLVQLKQTGK [R3H]	0.04 ± 0.11
RFILSPAARNILEKHSLDASQGTATGPRGIFTKEDALKLVQLKQTGK [R3I]	0.367 ± 0.097
RFKLSPAARNILEKHSLDASQGTATGPRGIFTKEDALKLVQLKQTGK [R3K]	-0.16 ± 0.078
RFLLSPAARNILEKHSLDASQGTATGPRGIFTKEDALKLVQLKQTGK [R3L]	-0.393 ± 0.05
RFMLSPAARNILEKHSLDASQGTATGPRGIFTKEDALKLVQLKQTGK [R3M]	-0.091 ± 0.077
RFNLSPAARNILEKHSLDASQGTATGPRGIFTKEDALKLVQLKQTGK [R3N]	0.31 ± 0.1
RFPLSPAARNILEKHSLDASQGTATGPRGIFTKEDALKLVQLKQTGK [R3P]	-0.188 ± 0.073
RFQLSPAARNILEKHSLDASQGTATGPRGIFTKEDALKLVQLKQTGK [R3Q]	-0.374 ± 0.084
RFSLSPAARNILEKHSLDASQGTATGPRGIFTKEDALKLVQLKQTGK [R3S]	-0.14 ± 0.055
RFVLSPAARNILEKHSLDASQGTATGPRGIFTKEDALKLVQLKQTGK [R3V]	0.04 ± 0.045
RFWLSPAARNILEKHSLDASQGTATGPRGIFTKEDALKLVQLKQTGK [R3W]	-0.119 ± 0.046
RFYLSPAARNILEKHSLDASQGTATGPRGIFTKEDALKLVQLKQTGK [R3Y]	0.109 ± 0.077
RFRASPAARNILEKHSLDASQGTATGPRGIFTKEDALKLVQLKQTGK [L4A]	-0.37 ± 0.063
RFRCSPAARNILEKHSLDASQGTATGPRGIFTKEDALKLVQLKQTGK [L4C]	-0.086 ± 0.064
RFRDSPAARNILEKHSLDASQGTATGPRGIFTKEDALKLVQLKQTGK [L4D]	0.005 ± 0.097
RFRESPAARNILEKHSLDASQGTATGPRGIFTKEDALKLVQLKQTGK [L4E]	-0.104 ± 0.046
RFRFSPAARNILEKHSLDASQGTATGPRGIFTKEDALKLVQLKQTGK [L4F]	-0.284 ± 0.14
